What all share (experiment): cross-linking
For assay [1], the target named is ^3FLAGPrgH (S. Typhimurium) (UniProt P41783).
The target of assay [2] is ^3FLAGSpaO (S. Typhimurium) (UniProt P40699).
Assay [3] addresses OrgB^R21^p^Bpa (OrgB^M45 variant) (S. Typhimurium).

For 3 substances, stoichiometry N (PrgH per OrgA), stoichiometry N (OrgB per SpaO) and stoichiometry N results are on record in publication PMC9907115.

Chain of UniProt P41783 (P41783 whole entry): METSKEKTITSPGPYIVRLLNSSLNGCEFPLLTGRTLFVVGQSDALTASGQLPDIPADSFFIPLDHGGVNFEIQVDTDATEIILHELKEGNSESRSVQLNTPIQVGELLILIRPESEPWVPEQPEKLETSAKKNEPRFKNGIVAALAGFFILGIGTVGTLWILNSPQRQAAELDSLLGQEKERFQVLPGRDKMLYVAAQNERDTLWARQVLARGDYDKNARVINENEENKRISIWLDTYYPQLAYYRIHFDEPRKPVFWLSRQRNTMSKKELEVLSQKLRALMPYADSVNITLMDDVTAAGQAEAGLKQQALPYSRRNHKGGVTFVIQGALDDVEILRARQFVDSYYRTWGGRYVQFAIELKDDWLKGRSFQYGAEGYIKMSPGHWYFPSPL
Chain of UniProt P40699 (P40699 whole entry): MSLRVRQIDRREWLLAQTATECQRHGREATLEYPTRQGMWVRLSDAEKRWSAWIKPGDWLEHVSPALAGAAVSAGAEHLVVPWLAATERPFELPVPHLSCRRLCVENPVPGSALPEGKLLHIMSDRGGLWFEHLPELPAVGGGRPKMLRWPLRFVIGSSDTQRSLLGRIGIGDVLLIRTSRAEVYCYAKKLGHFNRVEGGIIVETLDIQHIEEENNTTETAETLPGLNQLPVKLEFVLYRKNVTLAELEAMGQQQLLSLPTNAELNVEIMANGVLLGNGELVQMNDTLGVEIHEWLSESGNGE

For “OrgA^S70^p^Bpa/L104^p^Bpa (natural protein)”, in assay [1], the stoichiometry N (PrgH per OrgA) stood at 2. The substance “OrgB^K20^p^Bpa (OrgB^M45 variant) (natural protein)” registered a stoichiometry N (OrgB per SpaO) in assay [2] of 2. In the case of “OrgB^R21^p^Bpa (OrgB^M45 variant) (natural protein)”, in assay [3], the stoichiometry N (usually the number of molecules, sites or subunits per partner or assembly) worked out at 2.
